Data as given in paper PMC7037199 (International Journal of Molecular Sciences, 2020).
Values joined by “and” are separate entries in the source; they are usually repeats but may differ in a detail not shown here. Identical values can stand only once.

Legend:
[1] = target: amyloid-β in whole brain lysates of Tg2576 mice (human); assay: non-reducing Tris-Tricine SDS-PAGE with Western blot (SDS-stable bands); whole brain lysates of Tg2576 mice prepared with or without 100 μM TPEN; blots with anti-Aβ (6E10) or anti-apoE; no dithiothreitol or β-mercaptoethanol
[2] = target: the molecule itself; assay: as above

| stoichiometry N [1] | Molecule | stoichiometry N [2] |
| --- | --- | --- |
| 4 and 3 | amyloid-β in whole brain lysates of Tg2576 mice (peptide) | – |
| – | apolipoprotein E in whole brain lysates of Tg2576 mice (natural protein, mouse (endogenous in Tg2576 mouse brain), UniProt P08226 19-311, looked up, Apolipoprotein E endogenous in mouse brain; also called apoE; apoE monomers; source: endogenous, Tg2576 mouse brain lysate) EGEPEVTDQLEWQSNQPWEQALNRFWDYLRWVQTLSDQVQEELQSSQVTQELTALMEDTMTEVKAYKKELEEQLGPVAEETRARLGKEVQAAQARLGADMEDLRNRLGQYRNEVHTMLGQSTEEIRARLSTHLRKMRKRLMRDAEDLQKRLAVYKAGAREGAERGVSAIRERLGPLVEQGRQRTANLGAGAAQPLRDRAQAFGDRIRGRLEEVGNQARDRLEEVREHMEEVRSKMEEQTQQIRLQAEIFQARLKGWFEPIVEDMHRQWANLMEKIQASVATNPIITPVAQENQ | 2 |
